Reference: patent publication US7329737 (DYAX, dated 2008)
Numbering of substitutions follows the chain as printed. Blank lines part the entries; values can stand above or below the binder they belong to.

Molecular target: T1, hK1 (human tissue kallikrein 1), recombinant (human, UniProt P06870 25-262)
T1 construct: Expressed in P. pastoris from KLK1 cDNA and purified; enzymatically active; also called KLK1; Recombinant (Pichia) Kallikrein
Assay: SPR

B5: M0128-A06 (Fab, V domains shown)
VH: EVQLLESGGGLVQPGGSLRLSCAASGFTFSHYKMNWVRQAPGKGLEWVSYIGSSGGKTGYADSVKGRFTISRDNSKNTLYLQMNSLRAEDTALYYCARVGVWYGMDVWGQGTLVTVSS
VL: AQSALTQPPSLSVSAGQTATITCSPSGGGLRNKYVSWYQQRPGQSPFLVIYKDAERPSGIPERFSGSNFGNTATLTIGGTQAMDEADFYCLAWDSTTRVFGGGTKLTVLS
Kd: 18.4 nM | koff: 0.00612 s⁻¹ | kon: 332000 M⁻¹ s⁻¹

B7: M0094-F03 (Fab, V domains shown)
VH: EVQLLESGGGLVQPGGSLRLSCAASGFTFSWYQMSWVRQAPGKGLEWVSSIYPSGGATKYADSVKGRFTISRDNSKNTLYLQMNSLRAEDTAMYYCARMGLHHSFDYWGQGTLVTVSS
VL: DIQMTQSPGTLSLSLGETATLSCRASQTVGGSYLAWYRQKPGQAPSLLIYAASNRAPGIPDRFSGSGSGTDFTLTISSLQSEDFAVYYCQQYGSSMYTFGQGTILEIKR
Kd: 16.7 nM | koff: 0.00644 s⁻¹

B9: M0116-C09 (Fab, V domains shown)
VH: EVQLLESGGGLVQPGGSLRLSCAASGFTFSNYKMHWVRQAPGKGLEWVSSIYPSGGWTVYADSVKGRFTISRDNSKNTLYLQMNSLRAEDTAVYYCATGYSSTWGAFDIWGQGTMVTVSS
VL: AQSALTQPPSVSVSPGQTASITCFGDKLGDKYGSWYQQKPGQSPVLVLYQYWKRPSGIPERFSGSNSGNTATLTINVTQTMDEADYYCQAWDSNTVVFGGGTKLTVLG
Kd: 18.2 nM | koff: 0.00947 s⁻¹ | kon: 520000 M⁻¹ s⁻¹

B10: M0131-A03 (Fab, V domains shown)
VH: EVQLLESGGGLVQPGGSLRLSCAASGFTFSWYTMGWVRQAPGKGLEWVSVIYPSGGMTKYADSVKGRFTISRDNSKNTLYLQMNSLRAEDTAVYYCARTSGGTPWGFWGQGTLVTVSS
VL: AQYELTQPASVSGSPGQSITISCTGTNTDVGGYNYVSWYQQYPGKAPKLMIYEVNHRPSGVSNRFSGSKSGNTASLTISGLQAEDEADYYCSSYTYRNTYVFGTGTKVTVLG
Kd: 17.4 nM | koff: 0.046 s⁻¹ | kon: 2.65e+06 M⁻¹ s⁻¹

B12: M0124-G12 (Fab, V domains shown)
VH: EVQLLESGGGLVQPGGSLRLSCAASGFTFSHYWMRWVRQAPGKGLEWVSSIGSSGGMTKYADSVKGRFTISRDNSKNTLYLQMNSLRAEDTAVYYCARALRWRAFDIWGQGTMVTVSS
VL: DIQMTQSPSSVSASVGDRVTITCRASQGISSWLAWYQQKPGKAPKLLIYAASSLQSGVPSRFSGSGSGTDFTLTISSLQPEDFATYYCQQANSFPLTFGGGTKVEIKR
Kd: 17.2 nM | koff: 0.0064 s⁻¹ | kon: 372000 M⁻¹ s⁻¹

B13: M0117-C04 (Fab, V domains shown)
VH: EVQLLESGGGLVQPGGSLRLSCAASGFTFSHYLMFWVRQAPGKGLEWVSSIWPSGGNTKYADSVKGRFTISRDNSKNTLYLQMNSLRAEDTAVYYCARPAYYYAMDVWGQGTTVTVSS
VL: DIQMTQSPLSLSASVGDRVTITCRASQTFNNYLNWYQQKPGKAPKLLIYAASTLQSGVPSRFSGSGSGTDFTLTISSLQPEDFATYYCQQANSFPFTFGPGTKVDIKR
Kd: 16.6 nM | koff: 0.00334 s⁻¹ | kon: 201000 M⁻¹ s⁻¹

B14: M0128-F11 (Fab, V domains shown)
VH: EVQLLESGGGLVQPGGSLRLSCAASGFTFSFYVMGWVRQAPGKGLEWVSWIGPSGGRTWYADSVKGRFTISRDNSKNTLYLQMNSLRAEDTAVYYCARDRGWYGIDVWGQGTTVTVSS
VL: DIQMTQSPSSLSASVGDRVTITCRASQYISTYLAWYQQKPGKAPKLLIYKASDLESGVPSRFSGSGSGTEFTLTINSLQPDDFATYYCQQYNTYWTFGHGTKVEIKR
Kd: 18.3 nM | koff: 0.0143 s⁻¹ | kon: 780000 M⁻¹ s⁻¹

B17: M0131-D12 (Fab, V domains shown)
VH: EVQLLESGGGLVQPGGSLRLSCAASGFTFSWYNMYWVRQAPGKGLEWVSYIVPSGGATHYADSVKGRFTISRDNSKNTLYLQMNSLRAEDTAVYYCARALRGYSYGPRGYYYYGMDVWGQGTTVTVSS
VL: AQSALTQPPSVSVAPGQTASISCSGNILDNSYASWFQQKPGQSPVMVIHRDNKRPSGIPERFSGSTSGNTATLTISGTQAVDEADYYCQAWDRTTGVFGTGTRLTVLR
Kd: 18.4 nM | koff: 0.00193 s⁻¹ | kon: 105000 M⁻¹ s⁻¹

B20: M0099-D05 (Fab, V domains shown)
VH: EVQLLESGGGLVQPGGSLRLSCAASGFTFSNYIMSWVRQAPGKGLEWVSSIWPSGGHTRYADSVKGRFTISRDNSKNTLYLQMNSLRAEDTAVYYCARAGSYYAGDYWGQGTLVTVSS
VL: DIQMTQSPGTLSLSPGERATLSCRASQTVSSNYLAWYQQKPGLAPRLLIYGVSNRAAGIPDRFSGRGSGTDFTLIINRLEPEDFAVYYCQHYGSSAFTFGRGTKLEIER
Kd: 17.5 nM | koff: 0.00578 s⁻¹ | kon: 331000 M⁻¹ s⁻¹

B21: M0131-C08 (Fab, V domains shown)
VH: EVQLLESGGGLVQPGGSLRLSCAASGFTFSWYSMTWVRQAPGKGLEWVSSISPSGGATKYADSVKGRFTISRDNSKNTLYLQMNSLRAEDTAVYYCARGGAASLPFDYWGQGTLVTVSS
VL: DIQMTQSPSSVSASVGDRVTITCRASQDVLVSFAWYQQRPGTAPKLLIYAASHLHPGVPSRFSASGSGTDFTLTINGLQPEDFATYYCQQARSFPHTFGQGTRLEKKR
Kd: 17.7 nM | koff: 0.00466 s⁻¹ | kon: 264000 M⁻¹ s⁻¹

Results, then the binder that gave them:

Kd: 14.4 nM | koff: 0.00648 s⁻¹ | kon: 451000 M⁻¹ s⁻¹
B1: M0126-C10 (Fab, V domains shown)
VH: EVQLLESGGGLVQPGGSLRLSCAASGFTFSHYKMHWVRQAPGKGLEWVSSIWPSGGGTFYADSVKGRFTISRDNSKNTLYLQMNSLRAEDTAMYYCARTSGGFGAFDIWGQGTMVTVSS
VL: DIQMTQSPSSLSASVGDRVTITCRAGQTINNYLNWYQQKPGKAPNLLIYAASNLQSGVPSRFSGSKSGTDFTLTISSLQPEDFATYHCQQTYRTPFTFGGGTRVEIKG

Kd: 13.9 nM | koff: 0.00815 s⁻¹ | kon: 585000 M⁻¹ s⁻¹
B2: M0097-E07 (Fab, V domains shown)
VH: B5 VH with H31W, K33Q, N35M, Q39K, G52R, G59D, L93V, L113T
VL: DIQMTQSPSSLSASVGDRVTITCRASQSISSYLSWFQQRPGKAPKLLIYSASNLQSGVPLRFSGSGSGTDFTLTISSLQPEDFATYYCQQIYRTPLTFGGGTKVEIKR

Kd: 16 nM | koff: 0.00465 s⁻¹ | kon: 290000 M⁻¹ s⁻¹
B3: M0112-C12 (Fab, V domains shown)
VH: B5 VH with H31R, K33M, N35Y, Y50S, G52Y, S53P, G59L, L93V, L113T
VL: DIQMTQSPGTLSLSPGERATLSCRASQSVSSSYLAWYQQKPGQAPRLLIYGASSRATGIPDRFSGSGSGTEFTLTISSLQSEDSAVYYCQQYNNWPPLTFGGGTKVEIKR

Kd: 14.2 nM | koff: 0.00345 s⁻¹ | kon: 243000 M⁻¹ s⁻¹
B4: M0117-A12 (Fab, V domains shown)
VH: B5 VH with H31N, N35S, Y50G, G52Y, S53P, K57L, G59Q, L93V, R98K, L113T
VL: DIQMTQSPGTLSLSPGDRATLSCRASQSVGSDYLAWYQQKPGQAPRLLIYGASSRATGIPDRFSGSGSGTDFTLTISRLEPEDFAVYYCQQYGSSLYTFGQGTKLEIKR

Kd: 15.3 nM | koff: 0.00439 s⁻¹ | kon: 287000 M⁻¹ s⁻¹
B6: M0127-H05 (Fab, V domains shown)
VH: EVQLLESGGGLVQPGGSLRLSCAASGFTFSHYLMGWVRQAPGKGLEWVSSIWPSGGHTSYADSVKGRFTISRDNSKNTLYLQMNSLRAEDTAVYYCARHYGMDVWGQGTTVTVSS
VL: DIQMTQSPSSLSASVGDRVTITCRASQSISSYLNWYQQKPGKVPKLLIYAASSLQSGVPSRFSGSGSGTDFTLTISSLQPDDFATYYCQQTFSTWTFGQGTKVEIRR

Kd: 16.5 nM | koff: 0.00918 s⁻¹ | kon: 556000 M⁻¹ s⁻¹
B8: M0095-H10 (Fab, V domains shown)
VH: EVQLLESGGGLVQPGGSLRLSCAASGFTFSNYKMQWVRQAPGKGLEWVSSIYSSGGKTVYADSVKGRFTISRDNSKNTLYLQMNSLRAEDTAVYYCARTPGYNYFDYWGQGTLVTVSS
VL: DIQMTQSPSTLSASVGDRVTITCRASQSISSWLAWYQQKPGKAPKLLIYTASSLESGVPSRFSAGGSGTEFTLTISSLQPDDFGTYYCQQYNSYSLTFGGGTKVEIKR

Kd: 15.3 nM | koff: 0.003 s⁻¹ | kon: 195000 M⁻¹ s⁻¹
B11: M0107-D05 (Fab, V domains shown)
VH: EVQLLESGGGLVQPGGSLRLSCAASGFTFSNYHMQWVRQAPGKGLEWVSSIYPSGGFTRYADSVKGRFTISRDNSKNTLYLQMNSLRAEDTAVYYCARDGGQGGWGQGTLVTVSS
VL: B12 VL with S10T, V11L, G28S, A43V, Y49H, S53T, F83V, Q90K, A91Y, F94A

Kd: 15.2 nM | koff: 0.107 s⁻¹ | kon: 7.08e+06 M⁻¹ s⁻¹
B15: M0122-G06 (Fab, V domains shown)
VH: EVQLLESGGGLVQPGGSLRLSCAASGFTFSWYAMHWVRQAPGKGLEWVSVISPSGGATRYADSVKGRFTISRDNSKNTLYLQMNSLRAEDTAVYYCVRASTVTTLFQHWGQGTLVTVSS
VL: AQSALTQPASVSGSPGQSITISCTGTSSDVGGYNYVSWYQQHPGKAPKLMIYDVSKRPSGVSNRFSGSKSGNTASLTISGLQAEDEADYYCSSYTSSITLVVFGGGTKLTVLS

Kd: 16.1 nM | koff: 0.00193 s⁻¹ | kon: 120000 M⁻¹ s⁻¹
B16: M0098-C10 (Fab, V domains shown)
VH: EVQLLESGGGLVQPGGSLRLSCAASGFTFSFYSMMWVRQAPGKGLEWVSGISSSGGTTKYADSVKGRFTISRDNSKNTLYLQMNSLRAEDTAVYYCARGGTNYDYVWGSYRSHYYYYGMDVWGQGTTVTVSS
VL: DIQMTQSPSSLSASVGDRVTITCRASHNIYTSLNWLQQKPGKAPKLLIYGASTLENGVPSRFSGSASGTDFTLTISSLQPEDSATYYCQQSYTSVTFGQGTKLEIRR

Kd: 15 nM | koff: 0.00579 s⁻¹ | kon: 385000 M⁻¹ s⁻¹
B18: M0126-B12 (Fab, V domains shown)
VH: EVQLLESGGGLVQPGGSLRLSCAASGFTFSHYVMGWVRQAPGKGLEWVSSIYPSGGKTTYADSVKGRFTISRDNSKNTLYLQMNSLRAEDTAVYYCASPSTGSWSAFDIWGQGTMVTVSS
VL: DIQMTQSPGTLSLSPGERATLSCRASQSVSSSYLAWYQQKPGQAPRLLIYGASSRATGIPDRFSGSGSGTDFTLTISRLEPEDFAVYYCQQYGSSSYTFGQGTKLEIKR

Kd: 14.4 nM | koff: 0.000921 s⁻¹ | kon: 63900 M⁻¹ s⁻¹
B19: M0127-D05 (Fab, V domains shown)
VH: EVQLLESGGGLVQPGGSLRLSCAASGFTFSHYYMMWVRQAPGKGLEWVSSIGPSGGMTDYADSVKGRFTISRDNSKNTLYLQMNSLRAEDTAVYYCATGGTASLDYWGQGTLVTVSS
VL: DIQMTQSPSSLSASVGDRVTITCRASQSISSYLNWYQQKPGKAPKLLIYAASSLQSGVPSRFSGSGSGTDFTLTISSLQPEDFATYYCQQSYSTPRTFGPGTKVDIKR
